B1: MD63 (antibody, V domains shown)
VH: QVTLKESGGGVVQPGRSLRLSCAASGFTFSSYAMHWVRQAPGKGLEHVSAISSDGGITYFADSVKGRFTISRDNSRNTLFLQMSSLRVEDTAVYYCVKDQDSNSWYDAFDIWGRGTMVTVSS
VL: not shown
notes: scFv-Fc format; also called MD63 scFv-Fc
B2: MD45 (antibody, V domains shown)
VH: EVQLVQSGGGLVQPGGSLRLSCAASGFTVSSNYMTWVRQAPGKGLEWVSVIYSGGSTFYADSVKGRFTISRHNSKNTLYLQMNSLRAEDTAVYYCARDLSVRGGMDVWGQGTMVTVSS
VL: EIVLTQSPGTLSLSPGERATLSCRASQSVNSSYLAWYQQKPGQAPRLLIYGASNRATGIPDRFSGSGSGTDFTLTISRLEPEDFAVYYCQQYGVSPEIIFGQGTRLEIK
notes: scFv-Fc format; also called MD45 scFv-Fc
B3: MD62 (antibody, V domains shown)
VH: EVQLVQSGGGLIQPGGSLRLSCAASGVTVSSNYMTWVRQAPGKGLEWVSLIYSGGSTYYADSVKGRFTISRDNSKNTLYLQMNSLRAEDTAVYYCARDLQYYGMDVWGQGTMVTVSS
VL: AIRMTQSPSSVSASVGDRVTITCRASQDIGSWLGWYQQKPGKAPKLLIYAASSLAGGVPSRFSGSGSGTDFTLTISSLQPEDFATYYCQQANSFPLTFGGGTKLEIK
notes: scFv-Fc format; also called MD62 scFv-Fc
B4: MD47 (antibody, V domains shown)
V domain 1: QMQLVQSGGGLVQPGGSLRLSCAASGFTFSSYAMSWVRQAPGKGLEWVSAISSGGSTYYADSVKGRFTISRDNSKNTLYLQMNSLRAEDTAVYYCAKDLVTAPSYEAFDIWGQGTMITVSS
V domain 2: NFMLTQPPSVSVAPGKTARITCGGNNIGSKSVHWYQQKPGQAPVLVIYYDSDRPSGIPERFSGSNSGNTATLTISRVEAGDEADYYCQVWDSSSHHHVVFGGGTKGTVL
notes: scFv-Fc format; also called MD47 scFv-Fc
B5: MD17 (antibody, V domains shown)
VH: EVQLLESGGGLVQPGGSLRLSCSASGFTFSTYVMNWVRQAPGKGLEHVSGISSDGGITYYADSVKGRFTISRDNSKNTLYLQMSSLRVEDTAVYYCVKDQDSSSWYDAFDIWGQGTMVTVSS
VL: DIVMTQSPSSLSASVGDRVTITCRASQSISNYLNWYQQKLGKAPKLLTYAASRLQSGVPSRFSASGSGTEFTLTISSLQPEDFATYYCQQSYTTPLTFGGGTKLEIK
notes: scFv-Fc format; also called MD17 scFv-Fc
B6: MD29 (antibody, V domains shown)
VH: B5 VH with E1Q, V2M, L5V, E6Q, L45P
VL: NIRLTQSPSSLSASVGDRVTITCRATQSISSYLNWYQQKPGKAPNLLIYAASSLQSGVPSRFSGSGSGTDFTLTISSLQPEDFATYYCHQTYTSPYTFGQGTKLEIK
notes: scFv-Fc format; also called MD29 scFv-Fc
B7: MD67 (antibody, V domains shown)
VH: B2 VH with Q6E, M113T
VL: not shown
notes: scFv-Fc format; also called MD67 scFv-Fc

Where a chain is given by its changes, count along the chain named.

For one assay, the target named is T1, SARS-CoV-2 spike S1 subunit (SARS-CoV-2, Wuhan-Hu-1 (QHD43416), UniProt P0DTC2).
T1 construct: also called S1 domain
Kind of assay: ELISA; direct ELISA; S1 as coating antigen (2 μg/ml), antibody diluted in series; apparent KD (Fig. 1d). Conditions: both partners purified. For orientation: ELISA stands for enzyme-linked immunosorbent assay.
Regarding B1, the Kd was 15.6 nM. The same measure, in the same setting: the value for B2 was 12.7 nM.

The target of the next assay is SARS-CoV-2 spike N-terminal domain (NTD) (SARS-CoV-2, Wuhan-Hu-1 (QHD43416), UniProt P0DTC2). Kind of assay: ELISA; direct ELISA; plates coated with 2 μg/ml recombinant spike, S1, RBD or NTD; scFv-Fc detected with AP-conjugated anti-human IgG; specificity panel (Fig. 1c). As to conditions: both partners purified.
With B3, the binding result was “no binding”. With B1, the binding result was “no binding”. For the molecule B4, the binding result is given as “no binding”. Turning to B5, the binding result was “no binding”. Still for that read-out and setting: the value for B6 was “no binding”.

With B2, the binding result was “no binding”. Regarding B7, the binding result is “no binding”.

A further assay concerns the target T1, SARS-CoV-2 spike S1 subunit. Described as above. Conditions: both partners purified.
Regarding B4, the binding result is listed as “binds”.

These data come from PMC7452893 (Nature Communications, 2020).
